We go through 1 molecule from US20250326818A1 (UNIVERSIT T BASEL, published 2025).

The target in the test is T1, CD123 ECD wt (human, UniProt P26951 19-305).
T1 construct: Recombinant extracellular domain; Biotinylated when captured for the hIL3 assay; also called CD123_WT; recombinant wildtype CD123
T1 sequence: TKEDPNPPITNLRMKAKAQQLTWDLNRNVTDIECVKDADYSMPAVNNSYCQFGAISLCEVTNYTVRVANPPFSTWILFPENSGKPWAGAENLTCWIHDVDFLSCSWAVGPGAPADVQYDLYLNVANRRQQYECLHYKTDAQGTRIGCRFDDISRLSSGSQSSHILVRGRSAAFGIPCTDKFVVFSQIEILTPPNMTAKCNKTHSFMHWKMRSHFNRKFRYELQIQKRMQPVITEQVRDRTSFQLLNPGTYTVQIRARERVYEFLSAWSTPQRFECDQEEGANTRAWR
Kind of test: BLI (Octet), flotetuzumab hIgG1 captured on anti-human Fc tips, CD123 ECD as analyte, level at 250 s. The method, then:
Antibody flotetuzumab hIgG1 was captured by Anti-Human Fc capture biosensor (AHC) (Sartorius, PN: 18-5060) for 300 s at 0.5 μg/mL. Analytes CD123 ECD wt and variants (only CD123 ECD variants at high analyte concentrations) were titrated at 7 concentrations from 50 nM to 0.78 nM or 300 nM to 4.7 nM, respectively. Association to analyte was monitored for 300 s and dissociation for 600 s (CD123 wt) and 900 s (CD123 variants). Double reference subtraction was performed against buffer only well and biosensor loaded with a negative hIgG1 control. Regeneration was performed in 10 mM Gly-HCl pH 1.7. Data were analyzed using the Octet Data Analysis software HT
For orientation: In BLI a coated tip is dipped into the sample, and binding shifts an interference pattern.

B1: Flotetuzumab hIgG1 (antibody, V domains shown)
VH: EVQLVQSGAELKKPGASVKVSCKASGYTFTDYYMKWVRQAPGQGLEWIGDIIPSNGATFYNQKFKGRVTITVDKSTSTAYMELSSLRSEDTAVYYCARSHLLRASWFAYWGQGTLVTVSS
VL: DFVMTQSPDSLAVSLGERVTMSCKSSQSLLNSGNQKNYLTWYQQKPGQPPKLLIYWASTRESGVPDRFSGSGSGTDFTLTISSLQAEDVAVYYCQNDYSYPYTFGQGTKLEIK
notes: Tested as hIgG1 in BLI; also called Anti-CD123 antibody (Flotetuzumab)
For B1, the binding result was “binds”.
